To fix the notation:
B1: Aspartoacylase (Homo sapiens), P45381 (parent)
chain: MTSCHIAEEHIQKVAIFGGTHGNELTGVFLVKHWLENGAEIQRTGLEVKPFITNPRAVKKCTRYIDCDLNRIFDLENLGKKMSEDLPYEVRRAQEINHLFGPKDSEDSYDIIFDLHNTTSNMGCTLILEDSRNNFLIQMFHYIKTSLAPLPCYVYLIEHPSLKYATTRSIAKYPVGIEVGPQPQGVLRADILDQMRKMIKHALDFIHHFNEGKEFPPCAIEVYKIIEKVDYPRDENGEIAAIIHPNLQDQDWKPLHPGDPMFLTLDGKTIPLGGDCTVYPVFVNEAAYYEKKEAFAKTTKLTLNAKSIRCCLH
partner: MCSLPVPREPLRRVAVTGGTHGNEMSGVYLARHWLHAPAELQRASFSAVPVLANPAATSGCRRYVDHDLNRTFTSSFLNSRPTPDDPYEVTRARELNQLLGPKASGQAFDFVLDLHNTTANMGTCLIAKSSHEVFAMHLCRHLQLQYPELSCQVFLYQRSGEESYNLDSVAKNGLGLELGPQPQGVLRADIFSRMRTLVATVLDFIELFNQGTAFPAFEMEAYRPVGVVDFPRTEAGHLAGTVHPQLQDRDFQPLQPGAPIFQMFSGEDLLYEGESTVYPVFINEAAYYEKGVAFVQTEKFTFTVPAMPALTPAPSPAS

In one test the parent is B1. The note with it: with acy3_human ACY3, Q96HD9.
With MTSCHIAEEHIQKVAIFGGTHGNELTGVFLVKHWLENGAEIQRTGLEVKPFITNPRAVKKCTRYIDCDLNRIFDLENLGKKMSEDLPYEVRRAQEINHLFGPKDSEDSYDIIFDLHNTTSNMGCTLILEDSRNNFLIQMFHYFKTSLAPLPCYVYLIEHPSLKYATTRSIAKYPVGIEVGPQPQGVLRADILDQMRKMIKHALDFIHHFNEGKEFPPCAIEVYKIIEKVDYPRDENGEIAAIIHPNLQDQDWKPLHPGDPMFLTLDGKTIPLGGDCTVYPVFVNEAAYYEKKEAFAKTTKLTLNAKSIRCCLH [I143F], the “effect of a mutation on the interaction” value is on record as “disrupting interaction strength”.

Another test covers variants of B1. To be noted: with acy3_human ACY3, Q96HD9. This is another data set of the same source.
On to MTSCHIAEEHIQKVAIFGGTHGNELTGVFLVKHWLENGAEIQRTGLEVKPFITNPRAVKKCTRYIDCDLNRIFDLENLGKKMSEDLPYEVRRAQEINHLFGPKDSEDSYDIIFDLHNTTSNMGCTLILEDSRNNFLIQMFHYIKTSLAPLPCYVYLIEHPSLKYATTRSIAKYPVGIEVGPQPQGVLRADILDQRRKMIKHALDFIHHFNEGKEFPPCAIEVYKIIEKVDYPRDENGEIAAIIHPNLQDQDWKPLHPGDPMFLTLDGKTIPLGGDCTVYPVFVNEAAYYEKKEAFAKTTKLTLNAKSIRCCLH [M195R], for which the “effect of a mutation on the interaction” value is “disrupting interaction strength”. Still for that read-out and setting: for MTSCHIAEEHIQKVAIFGGTHGNELTGVFLVKHWLENGAEIQRTGLEVKPFITNPRAVKKCTRYIDCDLNRIFDLENLGKKMSEDLPYEVRRAQEINHLFGPKDSEDSYDIIFDLHNTTSNMGCTLILEDSRNNFLIQMFHYIKTSLAPLPCYVYLIEHPSLKYATTRSIAKYPVGIEVGPQPQGVLRADILDQMRKMIKHALDFIHHFNEGKEFPPCAIEVYKIIEKVDYPRDENGEIAAIIHPNLQDQDWKPLHPGDPMFLTLDGKTIPLGGDCTVYPVFVNAAAYYEKKEAFAKTTKLTLNAKSIRCCLH [E285A] the value was “disrupting interaction strength”; for MTSCHIAEEHIQKVAIFGGTHGNGLTGVFLVKHWLENGAEIQRTGLEVKPFITNPRAVKKCTRYIDCDLNRIFDLENLGKKMSEDLPYEVRRAQEINHLFGPKDSEDSYDIIFDLHNTTSNMGCTLILEDSRNNFLIQMFHYIKTSLAPLPCYVYLIEHPSLKYATTRSIAKYPVGIEVGPQPQGVLRADILDQMRKMIKHALDFIHHFNEGKEFPPCAIEVYKIIEKVDYPRDENGEIAAIIHPNLQDQDWKPLHPGDPMFLTLDGKTIPLGGDCTVYPVFVNEAAYYEKKEAFAKTTKLTLNAKSIRCCLH [E24G], “disrupting interaction strength”.

Values taken from IntAct's records for PubMed 25910212.
